PMC11218954 (PLOS ONE, 2024)
Substitutions are numbered along the chain they refer to. “And” between values parts separate entries of the source, which are not always exact repeats. Identical values can stand only once.

B1: αF1Ig AM2 (antibody, V domains shown)
VH: QVQLVESGGGLVKPGGSLRLSCAASGFTFSDYYMSWIRQAPGKGLEWVSYISGSGSIIYYADSVKGRFTISRDNAKNSLYLQMNSLRAEDTAVYYCAKEIRKHDAFDIWGQGTMVTVSS
VL: DIRMTQSPSSLSASVGDRVTITCRASRSISGYLNWYQQKPGKAPKLLIYATSSLQSGVPSRFSGSGSGTDFTLTISSLQPEDFATYYCQQSYSTPSSFGQGTKVDIK
notes: also called aF1Ig AM2; source: HEK293 cells, produced by ATUM; purified IgG
B2: αF1Ig 2 (parental anti-F1 immunoglobulin G type 1) (antibody, V domains shown)
VH: B1 VH with G53S, K102R
VL: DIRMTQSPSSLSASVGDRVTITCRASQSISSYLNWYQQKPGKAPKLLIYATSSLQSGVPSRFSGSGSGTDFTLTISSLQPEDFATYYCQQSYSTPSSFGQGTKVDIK
notes: IgG1; also called parental IgG 2; original anti-F1 IgG 2; source: HEK293 cells, produced by ATUM, purified IgG
B3: αF1Ig AM2 (affinity matured anti-F1 immunoglobulin G type 1) (antibody, V domains shown)
VH: B1 VH
VL: B1 VL
notes: IgG1; also called αF1 AM2; source: HEK293 cells, produced by ATUM, purified IgG
B4: αF1Ig 2 (antibody, V domains shown)
VH: B1 VH with G53S, K102R
VL: not shown
notes: also called aF1Ig 2; aF1_2; source: HEK293 cells, produced by ATUM; purified IgG
B5: αF1Ig 8 (antibody, V domains shown)
VH: QVQLQQWGAGLLKPSETLSLTCAVYGGSFSGYYWSWIRQPPGKGLEWIGEINHSGNTNYNPSLKSRVTISVDTSKNQFSLQLNSVTPEDTAVYYCARTRGYFDLWGRGTLVTVSS
VL: QPVLTQSPSVSVSPGQTASITCSGDKLGDRYASWYQQKPGQSPVLVIYQDTKRPSGIPERFSGSNSGNTATLTISGTQAMDEADYYCQSWDSSAAVFGTGTKLTVL
notes: also called aF1Ig 8; aF1_8; source: HEK293 cells, produced by ATUM; purified IgG
B6: αF1Ig AM8 (affinity matured anti-F1 immunoglobulin G type 1) (antibody, V domains shown)
VH: B5 VH with H53R
VL: B5 VL with D29G
notes: IgG1; also called aF1Ig AM8; αF1 AM8; source: HEK293 cells, produced by ATUM, purified IgG
B7: αF1Ig 8 (parental anti-F1 immunoglobulin G type 1) (antibody, V domains shown)
VH: B5 VH
VL: B5 VL
notes: IgG1; also called parental IgG 8; original anti-F1 IgG 8; source: HEK293 cells, produced by ATUM, purified IgG
B8: αF1Ig AM8 (antibody, V domains shown)
VH: B5 VH with H53R
VL: B5 VL with D29G
notes: also called aF1Ig AM8; source: HEK293 cells, produced by ATUM; purified IgG

Key:
[1] = target: T1, recombinant F1 antigen of Y. pestis, monomer enriched (Yersinia pestis, strain , UniProt P26948); assay: SPR; conditions: both partners purified
T1 construct: source: expressed in E. coli; BEI NR-44223, monomer enriched

[2] = target: T2, soluble recombinant F1 antigen, monomer-enriched (Yersinia pestis, strain , UniProt P26948); assay: SPR; conditions: both partners purified
T2 construct: source: bought: BEI Resources NR-44223, expressed in E. coli, monomer enriched

Binder	Kd [1]	Kd [2]
B1	2.4 nM and 2.3 nM and 1.2 nM	
B2		1.9 nM
B3		2.7 nM
B4	2.2 nM and 1.3 nM and 2.8 nM and 1.2 nM	
B5	5.6 nM and 9.7 nM and 7.4 nM and 6 nM	
B6		1.9 nM
B7		7.4 nM
B8	1.5 nM and 2.4 nM and 1.3 nM and 1.6 nM	
